Assays:
[1] = molecular target: Influenza A H5N1 virus (IAV H5N1) (target of the Octet assay of Example 18; protein not specified) (Influenza A H5N1 virus); assay: BLI (Octet Red 96), binding affinity to IAV H5N1
[2] = molecular target: RSV-F (amino acids 1-529), (Extracellular Domain) protein (His tag), ABIN2006856 (respiratory syncytial virus) (UniProt P03420); assay: ELISA, RSV F coated, read on Varioskan plate reader
[3] = molecular target: RSV-F (amino acids 1-529), (Extracellular Domain) protein (His tag), ABIN2006856 (respiratory syncytial virus) (UniProt P03420); assay: ELISA, RSV F coated, read on SpectroMax
[4] = molecular target: RSV-F (amino acids 1-529), (Extracellular Domain) protein (His tag), ABIN2006856 (respiratory syncytial virus) (UniProt P03420); assay: ELISA, RSV F coated, anti-human IgG-HRP
[5] = molecular target: SARS-CoV-2 (antigen of the ELISA of Example 17; protein not specified) (SARS-CoV-2); assay: ELISA by the method of Example 15, SARS-CoV-2 antigen
[6] = molecular target: Recombinant RSV F protein (Octet assays of Examples 14 and 16) (respiratory syncytial virus, UniProt P03420 26-529)

SEQ ID NO: 113, b1-Fc (NRP1, WT, single b1) (Fc fusion)
Kd [1]: 18.9 nM
EC50 [2]: 372 nM
EC50 [3]: 323 nM

SEQ ID NO: 121, b1b1-b1b1-Fc (NRP1, WT, quadruple b1) (Fc fusion)
Kd [1]: 0.00782 nM
EC50 [2]: 5.65 nM
EC50 [3]: 5.9 nM

SEQ ID NO: 122, b1b2-Fc (NRP1, WT, single b1b2) (Fc fusion)
Kd [1]: 17.5 nM
EC50 [4]: 23.3 nM
EC50 [5]: 3.09 nM

SEQ ID NO: 138, b1b2-b1b2-Fc (NRP1, WT, double b1b2) (Fc fusion)
EC50 [5]: 110 nM

SEQ ID NO: 154, b1b2-Fc (NRP2, WT, single b1b2) (Fc fusion)
EC50 [4]: 185 nM

SEQ ID NO: 191, b1b2-Fc (NRP1, WT) (Fc fusion)
EC50 [2]: 91 nM
EC50 [3]: 95.7 nM

SEQ ID NO: 192, b1b2-Fc-ACE2-1 (NRP1 b1b2 at the N-terminus, alpha domain of ACE2 at the C-terminus) (Fc fusion)
EC50 [4]: 53.9 nM

SEQ ID NO: 203, b1b2-Fc-ACE2 (NRP1, WT, ACE2 alpha domain) (Fc fusion)
EC50 [4]: 69.7 nM

SEQ ID NO: 205, b1b2-Fc-ACE2 (NRP1, WT, repeated ACE2 alpha domain) (Fc fusion)
EC50 [4]: 39.2 nM

SEQ ID NO: 206, Nrp1(b1)/Nrp2(b2)-Fc (WT) (Fc fusion)
EC50 [4]: 22.7 nM

SEQ ID NO: 207, Nrp2(b1)/Nrp1(b2)-Fc (WT) (Fc fusion)
EC50 [4]: 17.1 nM

B1: SEQ ID NO: 121, b1b1-b1b1-Fc (NRP1, WT, quadruple b1) (Fc fusion)
chain: EDFKCMEALGMESGEIHSDQITASSQYSTNWSAERSRLNYPENGWTPGEDSYREWIQVDLGLLRFVTAVGTQGAISKETKKKYYVKTYKIDVSSNGEDWITIKEGNKPVLFQGNTNPTDVVVAVFPKPLITRFVRIKPATWETGISMRFEVYGCKITDYPCMEALGMESGEIHSDQITASSQYSTNWSAERSRLNYPENGWTPGEDSYREWIQVDLGLLRFVTAVGTQGAISKETKKKYYVKTYKIDVSSNGEDWITIKEGNKPVLFQGNTNPTDVVVAVFPKPLITRFVRIKPATWETGISMRFEVYGCGGGGSGGGGSCMEALGMESGEIHSDQITASSQYSTNWSAERSRLNYPENGWTPGEDSYREWIQVDLGLLRFVTAVGTQGAISKETKKKYYVKTYKIDVSSNGEDWITIKEGNKPVLFQGNTNPTDVVVAVFPKPLITRFVRIKPATWETGISMRFEVYGCKITDYPCMEALGMESGEIHSDQITASSQYSTNWSAERSRLNYPENGWTPGEDSYREWIQVDLGLLRFVTAVGTQGAISKETKKKYYVKTYKIDVSSNGEDWITIKEGNKPVLFQGNTNPTDVVVAVFPKPLITRFVRIKPATWETGISMRFEVYGCGGGGSGGGGSEPKSCDKTHTCPPCPAPELLGGPSVFLFPPKPKDTLMISRTPEVTCVVVDVSHEDPEVKFNWYVDGVEVHNAKTKPREEQYNSTYRVVSVLAVLHQDWLNGKEYKCKVSNKALPAPIEKTISKAKGQPREPQVYTLPPSRDELTKNQVSLTCLVKGFYPSDIAVAWESNGQPENNYKTTPPVLDSDGSFFLYSKLTVDKSRWQQGNVFSCSVMHEALHAHYTQKSLSLSPGK
Kd [6]: < 1 nM

B2: SEQ ID NO: 113, b1-Fc (NRP1, WT, single b1) (Fc fusion)
chain: EDFKCMEALGMESGEIHSDQITASSQYSTNWSAERSRLNYPENGWTPGEDSYREWIQVDLGLLRFVTAVGTQGAISKETKKKYYVKTYKIDVSSNGEDWITIKEGNKPVLFQGNTNPTDVVVAVFPKPLITRFVRIKPATWETGISMRFEVYGCGGGGSGGGGSEPKSCDKTHTCPPCPAPELLGGPSVFLFPPKPKDTLMISRTPEVTCVVVDVSHEDPEVKFNWYVDGVEVHNAKTKPREEQYNSTYRVVSVLAVLHQDWLNGKEYKCKVSNKALPAPIEKTISKAKGQPREPQVYTLPPSRDELTKNQVSLTCLVKGFYPSDIAVAWESNGQPENNYKTTPPVLDSDGSFFLYSKLTVDKSRWQQGNVFSCSVMHEALHAHYTQKSLSLSPGK
Kd [6]: < 1 nM

From US20230312684A1 (PINETREE THERAPEUTICS, published 2023)
